Patent US20220023406A1

Biological target: HB-EGF receptor for diptheria toxin/CRM197 (heparin-binding epidermal growth factor-like precursor) on OV90 ovarian cancer cells (UniProt Q99075)
Test: cell-based or functional assay

Sequence of UniProt Q99075 (Q99075 63-148 limits assumed): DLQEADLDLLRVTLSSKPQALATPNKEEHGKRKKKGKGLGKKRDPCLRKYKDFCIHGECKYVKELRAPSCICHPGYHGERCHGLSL

CRM197-Alexa488 (from UniProt P00587 26-560)
labelling of OV90 tumor cells with CRM197-Alexa488 after 24 hours (flow cytometry, 10 µg/mL, without trypan blue): 98.2%
percentage of CRM197-Alexa488 uptake by OV90 tumor cells after 4 hours (flow cytometry, 10 µg/mL, without trypan blue): 82%
percentage of OV90 cells with intracellular CRM197-Alexa488 after 4 hours (flow cytometry, with trypan blue quenching): 72.7%
percentage of OV90 cells with intracellular CRM197-Alexa488 after 24 hours (flow cytometry, with trypan blue quenching): 97.6%
